The values below come from publication PMC8100066 (2021).

The experiment addresses mouse CSL (amino acid residues 53-474), conserved and structurally ordered core domain (mouse, UniProt P31266 53-474). Kind of experiment: ITC.

Sequence of mouse CSL (amino acid residues 53-474), conserved and structurally ordered core domain (P31266 53-474): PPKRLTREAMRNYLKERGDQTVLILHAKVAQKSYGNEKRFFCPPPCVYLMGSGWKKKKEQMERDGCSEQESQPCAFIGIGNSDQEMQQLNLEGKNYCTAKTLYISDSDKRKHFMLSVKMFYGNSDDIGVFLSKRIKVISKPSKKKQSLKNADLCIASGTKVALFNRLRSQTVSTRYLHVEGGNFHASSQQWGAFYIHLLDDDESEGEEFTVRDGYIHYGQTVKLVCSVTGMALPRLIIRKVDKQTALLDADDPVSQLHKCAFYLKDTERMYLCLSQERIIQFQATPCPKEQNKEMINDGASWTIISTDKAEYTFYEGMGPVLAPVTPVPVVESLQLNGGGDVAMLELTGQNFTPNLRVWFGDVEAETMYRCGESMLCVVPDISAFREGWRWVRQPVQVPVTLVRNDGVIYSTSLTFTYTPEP

ARRKREHSTLWFPEGFKV [human NOTCH3 RAM peptide (residues 1665-1682), nonphosphorylated]: the Ka worked out at 5.49e+06 M⁻¹.

On to VLLSRKRRRQHGQLWFPEGFKVSEASKK [human NOTCH1 RAM peptide (residues 1754-1781)], for which the Ka turned out to be 4.63e+07 M⁻¹.
